Reference: publication PMC7954794, “Protein context shapes the specificity of SH3 domain-mediated interactions in vivo” (Nature Communications, 2021)

System: growth of yeast strains under 51 stress conditions
Test: Growth assays in 51 stress conditions (Fig. 1E-F, S2D, S5B)
Type: cell-based, Saccharomyces cerevisiae
Parameters: key to Growth (Fig. S2D) / growth of ABP1 SH3-swapped strains in stress condition: log2 colony size, average of median per strain (growth score)
Details: ABP1 SH3-swapped strains
Method in brief: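 Yeast WT, SH3-deleted, KO, SH3-swapped and SH3-shuffled strains pinned in 1536 format, 12 replicates each; pregrown on YPD 2 days at 30 °C, then replicated onto 51 media at 37 °C and imaged every 2 h. Growth score = mean of per-plate median log2 colony size at 74 h.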

B1: LSB3 (protein)
chain: MGINNPIPRSLKSETKKAAKILASFVKPNQVFGADQVIPPDVLKRAKGLAIITILKAGFLFSGRAGSGVIVARLKDGTWSAPSAIAMAGAGAGGMVGIELTDFVFILNTQDAVKSFSEFGTITLGGNVSVSAGPLGRSAEAAASASAGGVAAVFAYSKSKGLFAGVSVEGSAIIERREANRKFYGDNCTAKMILSGRIRPPPAVDPLFRVLESRAFNYRPSNGGRGSFDDDEDDYYDDDDYYNDIPSSFSSTDASSTRPNTRSTRRRAQSGSRYTFDDDDDDDDYGTGYSRNSRLAPTNSGGSGGKLDDPSGASSYYASHRRSGTAQSRARSSRNRWADDEYDDYDDDYESGYRRGNGRDRTKDREVDDLSNRFSKSRISSASTPQTSQGRFTAPTSPSTSSPKAVALYSFAGEESGDLPFRKGDVITILKKSDSQNDWWTGRVNGREGIFPANYVELV
modifications: left off: DHFR F[3], C-terminal, kept
Growth (Fig. S2D) (Bathophenanthroline.0.1uM): 10.8613
Growth (Fig. S2D) (Bathophenanthroline.10uM): 10.7004
Growth (Fig. S2D) (Bathophenanthroline.1uM): 10.8044
Growth (Fig. S2D) (CaCl2.100mM): 10.8415
Growth (Fig. S2D) (CaCl2.250mM): 10.752
Growth (Fig. S2D) (CaCl2.500mM): 10.2861
Growth (Fig. S2D) (Caffein.10mM): 10.1331
Growth (Fig. S2D) (Caffein.2mM): 11.0359
Growth (Fig. S2D) (CdCl2.100uM): 9.517
Growth (Fig. S2D) (CdCl2.10uM): 10.8992
Growth (Fig. S2D) (CdCl2.50uM): 9.9
Growth (Fig. S2D) (CuSO4.1mM): 10.501
Growth (Fig. S2D) (CuSO4.5mM): 7.988
Growth (Fig. S2D) (Cycloheximide.0.05.uM): 11.1308
Growth (Fig. S2D) (Cycloheximide.0.2.uM): 10.6758
Growth (Fig. S2D) (Cycloheximide.0.5.uM): 10.143
Growth (Fig. S2D) (DMSO.2.): 11.0244
Growth (Fig. S2D) (DMSO.6.): 9.802
Growth (Fig. S2D) (DMSO.8.): 9.136
Growth (Fig. S2D) (Ethanol.2.): 10.7759
Growth (Fig. S2D) (Ethanol.6.): 10.3185
Growth (Fig. S2D) (Ethanol.8.): 10.0689
Growth (Fig. S2D) (Galactose.2.): 10.7876
Growth (Fig. S2D) (Glycerol.2.): 9.905
Growth (Fig. S2D) (Hydroxyurea.25mM): 10.8417
Growth (Fig. S2D) (Hygromycin.190uM): 11
Growth (Fig. S2D) (Hygromycin.19uM): 10.9944
Growth (Fig. S2D) (Hygromycin.95uM): 11.0899
Growth (Fig. S2D) (MMS.0.004.): 10.9826
Growth (Fig. S2D) (MMS.0.02.): 10.7326
Growth (Fig. S2D) (MMS.0.04.): 10.0186
Growth (Fig. S2D) (Menadione.100uM): 10.5511
Growth (Fig. S2D) (Menadione.200uM): 10.5189
Growth (Fig. S2D) (Menadione.50uM): 10.8398
Growth (Fig. S2D) (NaCl.0.25M): 10.7826
Growth (Fig. S2D) (NaCl.1M): 9.561
Growth (Fig. S2D) (Nitroquinoline.10uM): 10.7432
Growth (Fig. S2D) (Nitroquinoline.50uM): 10.6203
Growth (Fig. S2D) (Nystatin.0.01uM): 11.0314
Growth (Fig. S2D) (Nystatin.0.1uM): 11.0473
Growth (Fig. S2D) (Raffinose.2.): 11.0154
Growth (Fig. S2D) (Rapamycin.10nM): 9.815
Growth (Fig. S2D) (Rapamycin.50nM): 9.462
Growth (Fig. S2D) (SC.pH3): 10.4429
Growth (Fig. S2D) (SC.pH6): 11.0914
Growth (Fig. S2D) (SDS.0.01.): 10.9846
Growth (Fig. S2D) (SDS.0.02.): 11.0384
Growth (Fig. S2D) (SDS.0.05.): 10.8514
Growth (Fig. S2D) (Sorbitol.10mM): 10.9664
Growth (Fig. S2D) (Sorbitol.1mM): 11.0248
Growth (Fig. S2D) (Sorbitol.5mM): 10.914

B2: LSB1 (protein, UniProt P53281 2-241, looked up)
LAS seventeen-binding protein …: SASLVNRSLKNIRNELEFLKESNVISGDIFELINSKLPEKWDGNQRSPQNADTEEYVEALYDFEAQQDGDLSLKTGDKIQVLEKISPDWYRGKSNNKIGIFPANYVKPAFTRSASPKSAEAASSSTVSRPSVPPPSYEPAASQYPSQQVSAPYAPPAGYMQAPPPQQQQAPLPYPPPFTNYYQQPQQQYAPPSQQAPVEAQPQQSSGASSAFKSFGSKLGNAAIFGAGSAIGSDIVNSIF
Growth (Fig. S2D) (Bathophenanthroline.0.1uM): 10.7989
Growth (Fig. S2D) (Bathophenanthroline.10uM): 10.6305
Growth (Fig. S2D) (Bathophenanthroline.1uM): 10.7471
Growth (Fig. S2D) (CaCl2.100mM): 10.8093
Growth (Fig. S2D) (CaCl2.250mM): 10.7989
Growth (Fig. S2D) (CaCl2.500mM): 10.2904
Growth (Fig. S2D) (Caffein.10mM): 10.1077
Growth (Fig. S2D) (Caffein.2mM): 10.9656
Growth (Fig. S2D) (CdCl2.100uM): 9.41
Growth (Fig. S2D) (CdCl2.10uM): 10.8732
Growth (Fig. S2D) (CdCl2.50uM): 9.85
Growth (Fig. S2D) (CuSO4.1mM): 10.4529
Growth (Fig. S2D) (CuSO4.5mM): 7.9447
Growth (Fig. S2D) (Cycloheximide.0.05.uM): 11.0938
Growth (Fig. S2D) (Cycloheximide.0.2.uM): 10.6171
Growth (Fig. S2D) (Cycloheximide.0.5.uM): 10.0964
Growth (Fig. S2D) (DMSO.2.): 11.0559
Growth (Fig. S2D) (DMSO.6.): 9.9059
Growth (Fig. S2D) (DMSO.8.): 9.2023
Growth (Fig. S2D) (Ethanol.2.): 10.7659
Growth (Fig. S2D) (Ethanol.6.): 10.2982
Growth (Fig. S2D) (Ethanol.8.): 10.0154
Growth (Fig. S2D) (Galactose.2.): 10.7736
Growth (Fig. S2D) (Glycerol.2.): 9.808
Growth (Fig. S2D) (Hydroxyurea.25mM): 10.7374
Growth (Fig. S2D) (Hygromycin.190uM): 11.0084
Growth (Fig. S2D) (Hygromycin.19uM): 10.9924
Growth (Fig. S2D) (Hygromycin.95uM): 10.9928
Growth (Fig. S2D) (MMS.0.004.): 10.965
Growth (Fig. S2D) (MMS.0.02.): 10.7457
Growth (Fig. S2D) (MMS.0.04.): 10.0868
Growth (Fig. S2D) (Menadione.100uM): 10.5379
Growth (Fig. S2D) (Menadione.200uM): 10.4102
Growth (Fig. S2D) (Menadione.50uM): 10.7973
Growth (Fig. S2D) (NaCl.0.25M): 10.8176
Growth (Fig. S2D) (NaCl.1M): 9.837
Growth (Fig. S2D) (Nitroquinoline.10uM): 10.6531
Growth (Fig. S2D) (Nitroquinoline.50uM): 10.6066
Growth (Fig. S2D) (Nystatin.0.01uM): 10.9737
Growth (Fig. S2D) (Nystatin.0.1uM): 10.9631
Growth (Fig. S2D) (Raffinose.2.): 11.0015
Growth (Fig. S2D) (Rapamycin.10nM): 9.7845
Growth (Fig. S2D) (Rapamycin.50nM): 9.381
Growth (Fig. S2D) (SC.pH3): 10.3983
Growth (Fig. S2D) (SC.pH6): 10.9866
Growth (Fig. S2D) (SDS.0.01.): 10.9788
Growth (Fig. S2D) (SDS.0.02.): 10.9881
Growth (Fig. S2D) (SDS.0.05.): 10.872
Growth (Fig. S2D) (Sorbitol.10mM): 11.0061
Growth (Fig. S2D) (Sorbitol.1mM): 11.049
Growth (Fig. S2D) (Sorbitol.5mM): 10.9179
